Reference: the supplement of paper PMC9170038

Test system: MS2 coat protein
Test: apparent KD of MS2 coat protein; designed switch direction (-1 OFF switch, 1 ON switch): -1; higher = weaker reporter binding
Method in brief: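 Designed RNA switches were transcribed on Illumina chips by stalled E. coli RNA polymerase and titrated with SNAP-549-labelled MS2 coat protein from 0.7 or 1.5 nM, doubling to 3 µM. Step length ran from 0.8–1.5 h at the lowest concentration to 10–20 min at the highest. The apparent KD is the median over clusters for each design, from curve-fitted normalised cluster fluorescence.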

[1] = Eterna round: R95, input ligand: FMN 200 uM
[2] = Eterna round: R95, input ligand: microRNA oligo, concentration not stated
[3] = Eterna round: R95, input ligand: none
[4] = input ligand: microRNA oligo, concentration not stated

Row | Sequence | apparent KD of MS2 coat protein [1] | apparent KD of MS2 coat protein [2] | apparent KD of MS2 coat protein [3] | apparent KD of MS2 coat protein (input ligand: FMN 200 uM) | apparent KD of MS2 coat protein [4] | apparent KD of MS2 coat protein (input ligand: none)
1 | AAAAAACAAGGAUAUACAAAAAAAAAAAGUGAAAAAAAACCACAUGAGGAUCACCCAUGUAGAAGGUGUAAAAA [JR_Exclusion2_Sub002] (puzzle: Exclusion 2) | 21.9 nM | 37.1 nM | 51.1 nM | – | – | –
2 | AGCCUGUAAGUAGGAUAUAUGAUCAGGAAUGAAAUAGAAGGGCUUAGUGGACAUGAGGAUCACCCAUGUCAAUGGGUUCAUGCA [Edria] (Eterna round: R96, puzzle: Exclusion NG 1) | – | – | – | 15 nM | 16 nM | 22.5 nM
3 | UAUACUAGAUAGGAUAUACUAUAUAUAUUUUUCGUAGAAGGAUCUACAUGAGGAUCACCCAUGUUAACAGCAGU [JR_E6_Sub007] (puzzle: Exclusion 6) | 45 nM | 42.9 nM | 41.5 nM | – | – | –
4 | AGUACUGACACGAAAGUGUUAGUACAAUAAGCUUGUGAAACAUGAGGAUCACCCAUGUCCUCAUAAGCUCGUCUUAU [salish99_TOv2_r3_017] (Eterna round: R96, puzzle: Sensor v3, turn-off variant 2) | – | – | – | 15.9 nM | 469 nM | 17.9 nM
5 | GCAAGCUUUAUCACUAUGAACAUGAGGAUCACCCAUGUAUAAGGUAUUACUUUUGGGCUCUUUAGUGCUCGUCUUAU [JR_STOV1_Sub033] (Eterna round: R97, puzzle: Sensor, turn-off variant 1) | – | – | – | 26.2 nM | – | 26.7 nM
6 | CGAGCUGCUGUGAGGAUAUACCUGUGGGUGCGUGGGUAGAAGGCACAUGAGGAUCACCCAUGUCCUGCAGCUCG [salish99_bmx4_r4_105] (Eterna round: R97, puzzle: Brourd's mod of Exclusion 4) | – | – | – | 594 nM | – | 1060 nM
7 | AUUCCAACUUGAGGAUAUUAGUGGAACAGCCACUGAGAAGGCAGAUAACACCCUCAUAAACAUGAGGAUCACCCAUGUAGGAGA [Eternabot solution 44] (Eterna round: R96, puzzle: Exclusion NG 1) | – | – | – | 132 nM | 78.1 nM | 86.3 nM
8 | CACCUACAUGAGGAUCACCCAUGUCAGGAUAUCUUUGCUAAUAUGAAUAGAUGCGUAAAGAGAAGGGACAUUUC [EX1 C.8] (Eterna round: R97, puzzle: Exclusion 1) | – | – | – | 27 nM | – | 14.9 nM
9 | GCUAGAGCAGGAUAUUUAGAUCCUCACAUGAGGAUCACCCAUGUGGUCGAAAGACUAAGAAGAGAAGGGCUCUAGC [Omei Ex5 E21] (Eterna round: R97, puzzle: Exclusion 5) | – | – | – | 326 nM | – | 944 nM
10 | AGUCGGAAGACAAAAGGAAACAUGAGGAUCACCCAUGUAAAGGGUGAAAACAAGCCACCCGCUCGUCUUAAAGAAAA [Mat - Sensor v2- JL mod - D44] (Eterna round: R96, puzzle: Sensor v2, turn-off variant) | – | – | – | 40.7 nM | 144 nM | 46.1 nM
11 | CAUUCACAUGAGGAUCACCCAUGUCAGGAUAUAGUCGAUAUAUGGAAACAUAUAUCGACUAGAAGGGACUAGCG [Jieuxxlusion 13 - Jieux - Exclusion 1] (Eterna round: R97, puzzle: Exclusion 1) | – | – | – | 152 nM | – | 52.6 nM
12 | AGUCGAAAGACAAAAACAGACAUGAGGAUCACCCAUGUAAAGGGUGAACAAGCCACCCGCUCGUCUUAAAAAAAAAA [Mat - Sensor v2 - JL mod - D25] (Eterna round: R96, puzzle: Sensor v2, turn-off variant) | – | – | – | 136 nM | 69.2 nM | 114 nM
13 | ACUUAUUGAGGAUAUACAGAAAAUUACAUGAGGAUCACCCAUGUUCUUCAAUGUAUAUAUGUAGAAGGCAGAAGAU [Mat - Exclusion 5 - JL Mod - D16] (Eterna round: R97, puzzle: Exclusion 5) | – | – | – | 48.9 nM | – | 14.5 nM
14 | CGUGACUCAGGAUAUGUAUAAUAUCACAUGAGGAUCACCCAUGUCCAGCGAAAGCUGGAAGCAGAAGGGAGUCACG [Fiskers Ex 5 - 39] (puzzle: Exclusion 5) | 85.1 nM | 41.6 nM | 111 nM | – | – | –
15 | UUAUACGGUGAGGAUAUCUUCACUAAAGUGUGAAGAGAAGGCGCUACAUGAGGAUCACCCAUGUCUAUGGGCAG [Ex-6 Malc#17] (Eterna round: R96, puzzle: Exclusion 6) | – | – | – | – | 331 nM | –
16 | UUUUGGCAGGCUAUUAUUAACAUGAGGAUCACCCAUGUGCAUCCAAAAUUACUUUUAGAUCUUGCUGGUCUUAUAUA [JR_STOV1_Sub085] (Eterna round: R97, puzzle: Sensor, turn-off variant 1) | – | – | – | 284 nM | – | 330 nM
17 | UUGCAGUCGUCAGGAUAUAGUAUUACGGCCAUUUAUAUUUUCAUACAUGAGGAUCACCCAUGUCGCUAGAAGGGAUUAUCGAUU [salish99_ExNG2_r04_101] (Eterna round: R96, puzzle: Exclusion NG 2) | – | – | – | 49.7 nM | 40.4 nM | 53.4 nM

Row | Sequence | apparent KD of MS2 coat protein [1] | apparent KD of MS2 coat protein [2] | apparent KD of MS2 coat protein [3] | apparent KD of MS2 coat protein (input ligand: FMN 200 uM) | apparent KD of MS2 coat protein [4] | apparent KD of MS2 coat protein (input ligand: none)
18 | AGUACUAUGCGAGCUGACUUGCGUAGUGCAGCAAGUGAAACAUGAGGAUCACCCAUGUCCUCAUUUGCUCGUCUUAU [Mat - Sensor v3 - Turn-off var 2 - D1] (puzzle: Sensor v3, turn-off variant 2) | 35.3 nM | 453 nM | 30.8 nM | – | – | –
19 | AGUACUAUGCGAGCUGACUUGCGUAGUGCAGCAAGUGAAACAUGAGGAUCACCCAUGUCCUCAUUUGCUCGUCUUAU [Mat - Sensor v3 - Turn-off var 2 - D1] (Eterna round: R96, puzzle: Sensor v3, turn-off variant 2) | – | – | – | 31.1 nM | 662 nM | 34.1 nM
20 | UGCUAGUCAGGAUAUACGAACAUGUCAAAAGACGUGAAGGGACAUGAGGAUCACCCAUGUAGAAGGGACUAGCA [salish99_ex2_r3_005] (puzzle: Exclusion 2) | 158 nM | 27.1 nM | 23.9 nM | – | – | –
21 | UAUACACAUGAGGAUCACCCAUGUGAGGAUAUGUAAAAAAAACCGACGGUUUUUUUUUACAGAAGGCACAUAUA [JR_Exclusion1_Sub026] (puzzle: Exclusion 1) | – | 52.5 nM | – | – | – | –
22 | GAUCGUUUAGAGGAUAUCGUGCUAAACAUUACAUGAGAAGGCUAGACAUGAGGAUCACCCAUGUAUGCUCGUGA [Exclusion 6 - 8:b] (puzzle: Exclusion 6) | – | 14.8 nM | – | – | – | –
23 | AAUUUACAUGAGGAUCACCCAUGUGAGGAUAUUGUAUAUUUAUAGAAAUGUGGGUGUGCAAGAAGGCACAUAGG [Alacar 2] (Eterna round: R97, puzzle: Exclusion 1) | – | – | – | 134 nM | – | 63.6 nM
24 | AGUCGUAGACAGGAUAUGCGGCUAAUAAAUAAAGCAGAAGGGUCUACUUGAGGAUCACCCAAGUGGGCGGUUUA [jl-ex6-4.20 ViennaUCT mod] (Eterna round: R97, puzzle: Exclusion 6) | – | – | – | 96.3 nM | – | 23.1 nM
25 | CCAUGUGAGGAGGAUAUCGCCGCGCGAACCGAAUGAGAAGGUCUUACAUGAGGAUCACCCAUGUAAAGUACAUC [Eternabot (L1) Solution 1] (Eterna round: R97, puzzle: Exclusion 6) | – | – | – | 20.9 nM | – | 13.1 nM
26 | AAUAUACAUGUAGGAUAUCUGCACGUUUAGUGCAGAGAAGGACAUGAGGAUCACCCAUGUAAUUAAGAUCAAUUAUUAAAUAUU [ENG1/3-B2] (Eterna round: R96, puzzle: Exclusion NG 1) | – | – | – | 437 nM | 39.6 nM | 63 nM
27 | AGUGCGUAUGUGAGGAUAUGCUGGUCCUUGGAUCGGCAGAAGGCACAUGAGGAUCACCCAUGUGGUGUCGUACU [salish99_Bmod_ex4_084] (puzzle: Brourd's mod of Exclusion 4) | – | 280 nM | – | – | – | –
28 | UUUUUCAGGCCAGAUCCUCACAUGAGGAUCACCCAUGUGCUCGUCUGUUUUCGCUCUGUCUUUUUUUUGGUGGUGCU [Level Boss var2-20] (puzzle: Sensor v3, turn-off variant 1) | 177 nM | 26.7 nM | 178 nM | – | – | –
29 | AUAUUAACAUAGGAUAUCGAAUUUAUCAUUUAACGAGAAGGAUGAACAUGAGGAUCACCCAUGUGGUAUCAUGG [Mat - Exclusion 6 - JL Mod - D1] (puzzle: Exclusion 6) | 171 nM | 144 nM | 249 nM | – | – | –
30 | GGUAGAGUGGUAGGAUAUCCGUCUGUUUCAGUCGGAGAAGGGCCACAGUCACUGGGUCCUAAUAUCAUGGAGACCUGAUCUACU [pwkr exNG1 F6.13] (Eterna round: R96, puzzle: Exclusion NG 1) | – | – | – | 785 nM | 337 nM | 385 nM
31 | UAUUAGCAAGUAAGGUCCCACAUGAGGAUCACCCAUGUGCUCGUCUCCUCAGGUACGGAGCGGAAACUCCCGAUAUG [Sensor-V1 #92] (Eterna round: R97, puzzle: Sensor, turn-off variant 1) | – | – | – | 121 nM | – | 102 nM
32 | UCCUUACUGGUCAGGAUAUACAGUCGCGGGUGGGUGUAGAAGGGACAUGAGGAUCACCCAUGUACGUUACAUCC [alecazam54h] (Eterna round: R97, puzzle: Brourd's mod of Exclusion 4) | – | – | – | 19.7 nM | – | 19.9 nM
33 | AAUCGAUCGCCGUACGCACACAUGAGGAUCACCCAUGUAGCUGAGGAUAUCCACCCAUAACGGUCGGAGAAGGCGGGACUGGGA [Eraananbi] (Eterna round: R96, puzzle: Exclusion NG 3) | – | – | – | 30.8 nM | 11.3 nM | 19.1 nM
